Data as given in patent US20230094162A1 (MacroGenics, published 2023).
Read-outs that look alike come from different tables or passages of the source.

Tests used:
[1] = target: T1, CD137 expressed on the cell surface (CHO/CD137 cells) (UniProt Q07011 24-255, limits assumed); assay: flow cytometry on CHO/CD137 cells (Surface Binding)
T1 construct: whole, on cells; also called cell surface CD137; Jurkat-NF-κB-Luc reporter cells overexpressing CD137
Protocol: FACS analysis to evaluate the test articles for binding to cell surface CD137 was performed essentially as follows: 100 μL of CHO cells expressing CD137 (CHO/CD137) (1.0×10⁵ to 1×10⁶ cells/well) and 100 μL of serially diluted test article or control was added to each well of microtiter assay plate(s), mixed and incubated at RT for about 30 min. The cells were washed with FACS Buffer and secondary antibody (goat anti-human-APC, PE, or FITC) was then added to each well (1:1000), after which, the components were mixed and the wells were incubated at RT for about 30 min. Cells were washed and resuspended in 250 μL FACS Buffer and analyzed by flow cytometry (BD LSR Fortessa or FACSCanto II) for cell events collection. Data analysis were performed via FloJo v10.

[2] = target: T2, His-tagged soluble human CD137 fusion protein (huCD137) (human, UniProt Q07011 24-186); assay: ELISA, plate-coated soluble human CD137, hybridoma supernatant
T2 construct: extracellular domain; The ELISA method allows a His or a human Fc fusion; also called shCD137 His; huCD137-His; not shown: His tag
T2 sequence (Q07011 24-186): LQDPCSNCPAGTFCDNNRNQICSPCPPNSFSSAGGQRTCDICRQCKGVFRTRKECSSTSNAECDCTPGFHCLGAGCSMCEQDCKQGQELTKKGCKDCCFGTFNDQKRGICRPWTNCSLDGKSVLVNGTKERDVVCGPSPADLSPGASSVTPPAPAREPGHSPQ
Protocol: (§1) ELISA assays to evaluate the test articles for CD137 binding were performed essentially as follows: flat bottom maxisorb 96-well plates were coated with soluble human or cynomolgus monkey CD137 (the extracellular domain of human or cynomolgus monkey CD137 fused to a His tag (shCD137 His or scyCD137 His) or to a human Fc Region (shCD137 hFc or scyCD137 hFc)), each at 0.5 or 1 μg/mL. The plates were washed, blocked with PBS buffer containing 0.5% bovine serum albumin and 0.1% Tween20, and incubated with a test article (e.g., cell supernatants or purified mAb). For the hybridoma supernatants anti-CD137 antibody was utilized at 1.0 μg/mL and six three-fold serial dilutions. The amount of test article binding to the immobilized CD137 (human or cynomolgus monkey) was assessed using a goat anti-mouse IgG-HRP secondary antibody. All samples were analyzed on a plate reader (Victor 2 Wallac, Perkin Elmer) and EC50 values were calculated from dose-response curves by nonlinear regression analysis.

[3] = target: T3, soluble cynomolgus monkey CD137 (cyCD137) (cynomolgus monkey, UniProt A9YYE7 24-186); assay: ELISA, plate-coated soluble cynomolgus CD137, hybridoma supernatant
T3 construct: extracellular domain; also called scyCD137 His; scyCD137 hFc; not shown: His tag or human Fc Region
T3 sequence (A9YYE7 entry or part of it): as the sequence (Q07011 24-186) above, with P4L, N19S, R50K, T66I, P67S, F69Y, G75E, V149A counted along it
Protocol: as §1

[4] = target: T2, His-tagged soluble human CD137 fusion …; assay: BIACORE SPR, antibody captured on anti-human Fc, soluble CD137 His as analyte, 1:1 model
Excerpt: The binding kinetics of the anti-CD137 antibodies (having human Fc regions) were investigated using BIACORE™ SPR analysis. The anti-CD137 antibodies were captured on a Fab′2 goat-anti-human Fc surface.

[5] = target: T4, PD-L1 expressed on the cell surface (CHO/PD-L1 cells) (UniProt Q9NZQ7 19-290); assay: cell-based or functional assay
T4 sequence (Q9NZQ7 19-290): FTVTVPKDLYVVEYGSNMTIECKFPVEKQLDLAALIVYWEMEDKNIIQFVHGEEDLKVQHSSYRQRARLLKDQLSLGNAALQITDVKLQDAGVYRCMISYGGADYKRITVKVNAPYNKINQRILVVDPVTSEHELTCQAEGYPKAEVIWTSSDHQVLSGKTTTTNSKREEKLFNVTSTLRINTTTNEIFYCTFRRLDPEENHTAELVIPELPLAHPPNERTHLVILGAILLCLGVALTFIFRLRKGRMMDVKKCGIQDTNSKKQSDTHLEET

[6] = target: T4, PD-L1 expressed on the cell surface …; assay: cell-based or functional assay; remark: listed apart in the source
[7] = target: T1, CD137 expressed on the cell surface …; assay: flow cytometry (FACS) on CHO cells expressing CD137, MFI
[8] = target: T3, soluble cynomolgus monkey CD137 …; assay: ELISA, plate-coated soluble cynomolgus CD137
[9] = target: T2, His-tagged soluble human CD137 fusion …; assay: ELISA, plate-coated soluble human CD137

T1 sequence (Q07011 24-255 limits assumed): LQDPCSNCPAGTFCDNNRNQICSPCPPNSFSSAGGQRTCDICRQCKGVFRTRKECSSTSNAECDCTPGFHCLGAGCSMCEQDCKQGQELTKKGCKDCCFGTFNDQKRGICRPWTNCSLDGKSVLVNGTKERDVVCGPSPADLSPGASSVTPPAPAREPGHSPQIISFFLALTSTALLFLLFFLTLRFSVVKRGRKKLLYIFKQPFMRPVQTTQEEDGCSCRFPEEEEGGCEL

B1: CD137 MAB-6 (1.1) (antibody, V domains shown)
VH: QVQLQESGPGLVKPSETLSLTCTVSGGSISSYYWSWIRQPPGKGLEWIGRIYTSGSTNYNPSLKSRVTMSVDTSKNQFSLKLSSVTAADTAVYYCARDGWYDEDYNYYGMDVWGQGTTVTVSS
VL: EIVMTQSPATLSLTPGERATLSCRASQSVSSNYLSWFQQIPGQAPRLLIYGASTRATGIPARFSGSGSGTDFTLTISSLQPEDFAVYYCQQDYDLPWTFGQGTKVEIK
notes: Fully human variable domains from a TRIANNI MOUSE hybridoma
[1]
  EC50: 0.021 µg/mL
[2]
  EC50: 0.038 µg/mL
[3]
  EC50: 0.049 µg/mL
[4]
  Kd: 16 nM
  koff: 0.0067 s⁻¹
  kon: 420000 M⁻¹ s⁻¹

B2: TRIDENT-A4 (bispecific antibody, human IgG1, kappa, L234A L235A)
chain 1: EIVMTQSPATLSLTPGERATLSCRASQSVSSNYLSWFQQIPGQAPRLLIYGASTRATGIPARFSGSGSGTDFTLTISSLQPEDFAVYYCQQDYDLPWTFGQGTKVEIKGGGSGGGGQVQLQESGPGLVKPSETLSLTCTVSGGSISSYYWSWIRQPPGKGLEWIGRIYTSGSTNYNPSLKSRVTMSVDTSKNQFSLKLSSVTAADTAVYYCARDGWYDEDYNYYGMDVWGQGTTVTVSSGGCGGGEVAALEKEVAALEKEVAALEKEVAALEKGGGDKTHTCPPCPAPEAAGGPSVFLFPPKPKDTLYITREPEVTCVVVDVSHEDPEVKFNWYVDGVEVHNAKTKPREEQYNSTYRVVSVLTVLHQDWLNGKEYKCKVSNKALPAPIEKTISKAKGQPREPQVYTLPPSREEMTKNQVSLWCLVKGFYPSDIAVEWESNGQPENNYKTTPPVLDSDGSFFLYSKLTVDKSRWQQGNVFSCSVMHEALHNHYTQKSLSLSPGK
chain 2: EIVMTQSPATLSLTPGERATLSCRASQSVSSNYLSWFQQIPGQAPRLLIYGASTRATGIPARFSGSGSGTDFTLTISSLQPEDFAVYYCQQDYDLPWTFGQGTKVEIKGGGSGGGGQVQLQESGPGLVKPSETLSLTCTVSGGSISSYYWSWIRQPPGKGLEWIGRIYTSGSTNYNPSLKSRVTMSVDTSKNQFSLKLSSVTAADTAVYYCARDGWYDEDYNYYGMDVWGQGTTVTVSSGGCGGGKVAALKEKVAALKEKVAALKEKVAALKE
heavy: EVQLVESGGGLVQPGGSLRLSCAASGFTFSSYTMSWVRQAPGKGLEWVAYISIKGGTTYYPDTVKGRFTISRDNAKNSLYLQMNSLRAEDTAVYYCARQGLPYYGDYWGQGTLVTVSSASTKGPSVFPLAPSSKSTSGGTAALGCLVKDYFPEPVTVSWNSGALTSGVHTFPAVLQSSGLYSLSSVVTVPSSSLGTQTYICNVNHKPSNTKVDKRVEPKSCDKTHTCPPCPAPEAAGGPSVFLFPPKPKDTLYITREPEVTCVVVDVSHEDPEVKFNWYVDGVEVHNAKTKPREEQYNSTYRVVSVLTVLHQDWLNGKEYKCKVSNKALPAPIEKTISKAKGQPREPQVYTLPPSREEMTKNQVSLSCAVKGFYPSDIAVEWESNGQPENNYKTTPPVLDSDGSFFLVSKLTVDKSRWQQGNVFSCSVMHEALHNRYTQKSLSLSPGK
light: DIQMTQSPSSLSASVGDRVTITCKASQDVNEAVAWYQQKPGKAPKLLIYWASTRHTGVPSRFSGSGSGTDFTLTISSLQPEDFATYYCQQHYNTPLTFGQGTKVEIKRTVAAPSVFIFPPSDEQLKSGTASVVCLLNNFYPREAKVQWKVDNALQSGNSQESVTEQDSKDSTYSLSSTLTLSKADYEKHKVYACEVTHQGLSSPVTKSFNRGEC
notes: Trivalent; two CD137 MAB-6(1.1) sites, one hPD-L1 MAB-2(3.2) site
[5]
  EC50 (read off the curve): ~0.2 µg/mL
[6]
  EC50 (read off the curve): ~0.4 µg/mL
[7]
  EC50 (read off the curve): ~0.01 µg/mL

B3: chCD137 MAB-3 (antibody, V domains shown)
VH: QVQLQQPGAELVRPGASVKLSCKASGYTFTSYWINWVKQRPGQGLEWIGNIYPSDSYTNYNQKFKDKATLTVDKSSSTAYMQLSSPTSEDSAVYYCTRDYGSSYSFDYWGQGTTLTVSS
VL: DIQMTQTTSSLSASLGDRVTISCRPSQDISNYLNWYQQKPDGTVKLLIYYTSRLRSGVPSRFSGSGSGTDYSLTISNLEQEDIATYFCQQGDTLPYTFGGGTKLEIK
[1]
  EC50: 0.01 µg/mL
[8]
  EC50: 0.044 µg/mL
[9]
  EC50: 0.034 µg/mL
[4]
  Kd: 38 nM
  koff: 0.025 s⁻¹
  kon: 660000 M⁻¹ s⁻¹
